This is an account of results in patent US20180273642A1 (EMERGENT PRODUCT DEVELOPMENT SEATTLE, published 2018).

One assay addresses T1, CD28 on CD4+ T cells (human, UniProt P10747 19-220).
T1 construct: whole, on cells
Briefly: binding to CD4+ T cells (FIG. 3; method not described).

A further assay deals with T2, CD19 on cells (UniProt P15391 20-556, limits assumed).
T2 construct: whole, on cells
T2 sequence (looked up): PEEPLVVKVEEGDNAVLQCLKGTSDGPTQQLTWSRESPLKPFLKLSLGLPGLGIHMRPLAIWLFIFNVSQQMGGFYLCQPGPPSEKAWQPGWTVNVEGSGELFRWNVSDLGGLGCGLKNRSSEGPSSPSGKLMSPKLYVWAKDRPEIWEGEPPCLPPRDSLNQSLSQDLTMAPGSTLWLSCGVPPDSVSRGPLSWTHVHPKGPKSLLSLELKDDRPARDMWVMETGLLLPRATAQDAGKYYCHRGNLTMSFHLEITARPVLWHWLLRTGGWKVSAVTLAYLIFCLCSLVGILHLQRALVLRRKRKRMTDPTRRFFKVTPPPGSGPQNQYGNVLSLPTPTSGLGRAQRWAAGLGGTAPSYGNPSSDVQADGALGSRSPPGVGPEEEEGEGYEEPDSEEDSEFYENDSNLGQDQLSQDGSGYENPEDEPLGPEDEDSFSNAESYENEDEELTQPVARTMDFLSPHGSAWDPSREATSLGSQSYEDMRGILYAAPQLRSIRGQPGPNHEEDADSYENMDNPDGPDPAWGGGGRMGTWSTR
Briefly: flow cytometry on Rec1 (CD19+, CD20+) cells, 100 nM to 0.1 nM, goat anti-human IgG-FITC. The text has this:
(§1) T-cells were isolated from donor PBMCs using a Pan T-cell Isolation Kit II from Miltenyi Biotec (Bergisch Gladbach, Germany). Non T-cells were separated from PBMCs by being indirectly magnetically labeled with biotin-conjugated monoclonal antibodies and anti-biotin magnetic microbeads. These cells were then depleted by retaining them in a column surrounded by a magnetic field. The T-cells were not retained in the column and were collected in the flow through.
(§2) The cells were washed three times and then incubated with goat anti-human IgG-FITC (1:200 dilution) for another 30 minutes at 4° C. The cells were then washed again three times, fixed in 1% paraformaldehyde and read on a FACS-Calibur instrument.
Background: In flow cytometry, cells or beads pass a laser one at a time.

The target of another assay is T3, CD20 on cells (UniProt P11836 1-297, limits assumed).
T3 construct: whole, on cells
T3 sequence (looked up): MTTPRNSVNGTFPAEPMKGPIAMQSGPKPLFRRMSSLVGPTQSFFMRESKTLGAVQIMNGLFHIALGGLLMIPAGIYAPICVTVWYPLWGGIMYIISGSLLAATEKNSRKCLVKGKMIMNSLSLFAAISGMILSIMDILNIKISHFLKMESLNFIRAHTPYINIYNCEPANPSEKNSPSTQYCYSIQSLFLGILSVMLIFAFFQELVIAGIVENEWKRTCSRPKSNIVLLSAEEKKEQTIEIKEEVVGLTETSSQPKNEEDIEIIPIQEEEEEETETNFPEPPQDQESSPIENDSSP
Described as above.
Text: as §1, §2

B1: 2E12 (anti-CD28) scFv (scFv)
scFv: QVQLKESGPGSVAPSQSLSITCTVSGFSLTGYGVNWVRQPPGKGLEWLGMIWGDGSTDYNSALKSRLSITKDNSKSQVFLKMNSLQTDDTARYYCARDGYSNFHYYVMDYWGQGTSVTVSSGGGGSGGGGSGGGGSGGGGSDIVLTQSPASLAVSLGQRATISCRASESVEYYVTSLMQWYQQKPGQPPKLLISAASNVESGVPARFSGSGSGTDFSLNIHPVEEDDIAMYFCQQSRKVPWTFGGGTKLEIK
notes: also called 2E12 scFv
Consider B1, for which, in the assay with CD28 on CD4+ T cells, the binding result is “binds”.

B2: bispecific polypeptide heterodimer TSC020 (anti-CD19 and anti-CD3) (bispecific antibody)
chain 1: DIVLTQSPASLAVSLGQRATISCKASQSVDYDGDSYLNWYQQIPGQPPKLLIYDASNLVSGIPPRFSGSGSGTDFTLNIHPVEKVDAATYHCQQSTEDPWTFGGGTKLEIKGGGGSGGGGSGGGGASQVQLQQSGAELVRPGSSVKISCKASGYAFSSYWMNWVKQRPGQGLEWIGQIWPGDGDTNYNGKFKGKATLTADESSSTAYMQLSSLASEDSAVYFCARRETTTVGRYYYAMDYWGQGTSVTVSSSEPKSSDKTHTCPPCPSGAPELLGGPSVFLFPPKPKDTLMISRTPEVTCVVVDVSHEDPEVKFNWYVDGVEVHNAKTKPREEQYNSTYRVVSVLTVLHQDWLNGKEYKCKVSNKALPAPIEKTISKAKGQPREPQVYTLPPSRDELTKNQVSLTCLVKGFYPSDIAVEWESNGQPENNYKTTPPVLDSDGSFFLYSKLTVDKSRWQQGNVFSCSVMHEALHNHYTQKSLSLSPGKSRASTKGPSVFPLAPSSKSTSGGTAALGCLVKDYFPEPVTVSWNSGALTSGVHTFPAVLQSSGLYSLSSVVTVPSSSLGTQTYICNVNHKPSNTKVDKKV
chain 2: EVQLQQSGPELVKPGASMKISCKASGYSFTGYIVNWLKQSHGKNLEWIGLINPYKGLTTYNQKFKGKATLTVDKSSSTAYMELLSLTSEDSAVYYCARSGYYGDSDWYFDVWGAGTTVTVSSGGGGSGGGGSGGGGSAQDIQMTQTTSSLSASLGDRVTISCRASQDIRNYLNWYQQKPDGTVKLLIYYTSRLHSGVPSRFSGSGSGTDYSLTIANLQPEDIATYFCQQGNTLPWTFGGGTKLVTKRSSEPKSSDKTHTCPPCPSGAPELLGGPSVFLFPPKPKDTLMISRTPEVTCVVVDVSHEDPEVKFNWYVDGVEVHNAKTKPREEQYNSTYRVVSVLTVLHQDWLNGKEYKCKVSNKALPAPIEKTISKAKGQPREPQVYTLPPSRDELTKNQVSLTCLVKGFYPSDIAVEWESNGQPENNYKTTPPVLDSDGSFFLYSKLTVDKSRWQQGNVFSCSVMHEALHNHYTQKSLSLSPGKSRTVAAPSVFIFPPSDEQLKSGTASVVCLLNYFYPREAKVQWKVDNALQSGNSQESATEQDSKDSTYSLSSELTLSKADYEKHKVYACEVTHQGLSSPVTKSFNRGE
notes: HD37 (anti-CD19) scFv and G19-4 (anti-CD3) scFv; also called CD19×αCD3; TSC001 + TSC019
In the case of B2, the binding result in the assay with CD19 on cells is reported as “binds”.

B3: bispecific (CD20, CD3) polypeptide heterodimer TSC021 (bispecific antibody)
chain 1: QIVLSQSPAILSASPGEKVTMTCRASSSVSYMHWYQQKPGSSPKPWIYAPSNLASGVPARFSGSGSGTSYSLTISRVEAEDAATYYCQQWSFNPPTFGAGTKLELKDGGGSGGGGSGGGGASQAYLQQSGAESVRPGASVKMSCKASGYTFTSYNMHWVKQTPRQGLEWIGAIYPGNGDTSYNQKFKGKATLTVDKSSSTAYMQLSSLTSEDSAVYFCARVVYYSNSYWYFDVWGTGTTVTVSSSEPKSSDKTHTCPPCPSGAPELLGGPSVFLFPPKPKDTLMISRTPEVTCVVVDVSHEDPEVKFNWYVDGVEVHNAKTKPREEQYNSTYRVVSVLTVLHQDWLNGKEYKCKVSNKALPAPIEKTISKAKGQPREPQVYTLPPSRDELTKNQVSLTCLVKGFYPSDIAVEWESNGQPENNYKTTPPVLDSDGSFFLYSKLTVDKSRWQQGNVFSCSVMHEALHNHYTQKSLSLSPGKSRASTKGPSVFPLAPSSKSTSGGTAALGCLVKDYFPEPVTVSWNSGALTSGVHTFPAVLQSSGLYSLSSVVTVPSSSLGTQTYICNVNHKPSNTKVDKKV
chain 2: EVQLQQSGPELVKPGASMKISCKASGYSFTGYIVNWLKQSHGKNLEWIGLINPYKGLTTYNQKFKGKATLTVDKSSSTAYMELLSLTSEDSAVYYCARSGYYGDSDWYFDVWGAGTTVTVSSGGGGSGGGGSGGGGSAQDIQMTQTTSSLSASLGDRVTISCRASQDIRNYLNWYQQKPDGTVKLLIYYTSRLHSGVPSRFSGSGSGTDYSLTIANLQPEDIATYFCQQGNTLPWTFGGGTKLVTKRSSEPKSSDKTHTCPPCPSGAPELLGGPSVFLFPPKPKDTLMISRTPEVTCVVVDVSHEDPEVKFNWYVDGVEVHNAKTKPREEQYNSTYRVVSVLTVLHQDWLNGKEYKCKVSNKALPAPIEKTISKAKGQPREPQVYTLPPSRDELTKNQVSLTCLVKGFYPSDIAVEWESNGQPENNYKTTPPVLDSDGSFFLYSKLTVDKSRWQQGNVFSCSVMHEALHNHYTQKSLSLSPGKSRTVAAPSVFIFPPSDEQLKSGTASVVCLLNYFYPREAKVQWKVDNALQSGNSQESATEQDSKDSTYSLSSELTLSKADYEKHKVYACEVTHQGLSSPVTKSFNRGE
notes: 2H7 (anti-CD20) scFv and G19-4 (anti-CD3) scFv; also called αCD20×αCD3; TSC002 + TSC019
For the molecule B3, the binding result in the assay with CD20 on cells is “binds”.

B4: monovalent anti-CD28 polypeptide heterodimer X0124 (Fc fusion)
chain 1: QVQLKESGPGSVAPSQSLSITCTVSGFSLTGYGVNWVRQPPGKGLEWLGMIWGDGSTDYNSALKSRLSITKDNSKSQVFLKMNSLQTDDTARYYCARDGYSNFHYYVMDYWGQGTSVTVSSGGGGSGGGGSGGGGSGGGGSDIVLTQSPASLAVSLGQRATISCRASESVEYYVTSLMQWYQQKPGQPPKLLISAASNVESGVPARFSGSGSGTDFSLNIHPVEEDDIAMYFCQQSRKVPWTFGGGTKLEIKSSSASTKGPSVFPLAPSSKSTSGGTAALGCLVKDYFPEPVTVSWNSGALTSGVHTFPAVLQSSGLYSLSSVVTVPSSSLGTQTYICNVNHKPSNTKVDKKVRTEPKSSDKTHTCPPCPSGAPELLGGPSVFLFPPKPKDTLMISRTPEVTCVVVDVSHEDPEVKFNWYVDGVEVHNAKTKPREEQYNSTYRVVSVLTVLHQDWLNGKEYKCKVSNKALPAPIEKTISKAKGQPREPQVYTLPPSRDELTKNQVSLTCLVKGFYPSDIAVEWESNGQPENNYKTTPPVLDSDGSFFLYSKLTVDKSRWQQGNVFSCSVMHEALHNHYTQKSLSLSPGK
chain 2: TVAAPSVFIFPPSDEQLKSGTASVVCLLNNFYPREAKVQWKVDNALQSGNSQESVTEQDSKDSTYSLSSTLTLSKADYEKHKVYACEVTHQGLSSPVTKSFNRGERTEPKSSDKTHTCPPCPSGAPELLGGPSVFLFPPKPKDTLMISRTPEVTCVVVDVSHEDPEVKFNWYVDGVEVHNAKTKPREEQYNSTYRVVSVLTVLHQDWLNGKEYKCKVSNKALPAPIEKTISKAKGQPREPQVYTLPPSRDELTKNQVSLTCLVKGFYPSDIAVEWESNGQPENNYKTTPPVLDSDGSFFLYSKLTVDKSRWQQGNVFSCSVMHEALHNHYTQKSLSLSPGK
notes: One 2E12 (anti-CD28) scFv only; also called X0112 + X0113
For the molecule B4, in the assay with CD28 on CD4+ T cells, the binding result is reported as “binds”.

B5: bivalent anti-CD28 polypeptide heterodimer X0172 (Fc fusion)
chain 1: QVQLKESGPGSVAPSQSLSITCTVSGFSLTGYGVNWVRQPPGKGLEWLGMIWGDGSTDYNSALKSRLSITKDNSKSQVFLKMNSLQTDDTARYYCARDGYSNFHYYVMDYWGQGTSVTVSSGGGGSGGGGSGGGGSGGGGSDIVLTQSPASLAVSLGQRATISCRASESVEYYVTSLMQWYQQKPGQPPKLLISAASNVESGVPARFSGSGSGTDFSLNIHPVEEDDIAMYFCQQSRKVPWTFGGGTKLEIKSSSASTKGPSVFPLAPSSKSTSGGTAALGCLVKDYFPEPVTVSWNSGALTSGVHTFPAVLQSSGLYSLSSVVTVPSSSLGTQTYICNVNHKPSNTKVDKKVRTEPKSSDKTHTCPPCPSGAPELLGGPSVFLFPPKPKDTLMISRTPEVTCVVVDVSHEDPEVKFNWYVDGVEVHNAKTKPREEQYNSTYRVVSVLTVLHQDWLNGKEYKCKVSNKALPAPIEKTISKAKGQPREPQVYTLPPSRDELTKNQVSLTCLVKGFYPSDIAVEWESNGQPENNYKTTPPVLDSDGSFFLYSKLTVDKSRWQQGNVFSCSVMHEALHNHYTQKSLSLSPGKSRTVAAPSVFIFPPSDEQLKSGTASVVCLLNNFYPREAKVQWKVDNALQSGNSQESVTEQDSKDSTYSLSSTLTLSKADYEKHKVYACEVTHQGLSSPVTKSFNRGE
chain 2: TVAAPSVFIFPPSDEQLKSGTASVVCLLNNFYPREAKVQWKVDNALQSGNSQESVTEQDSKDSTYSLSSTLTLSKADYEKHKVYACEVTHQGLSSPVTKSFNRGERTEPKSSDKTHTCPPCPSGAPELLGGPSVFLFPPKPKDTLMISRTPEVTCVVVDVSHEDPEVKFNWYVDGVEVHNAKTKPREEQYNSTYRVVSVLTVLHQDWLNGKEYKCKVSNKALPAPIEKTISKAKGQPREPQVYTLPPSRDELTKNQVSLTCLVKGFYPSDIAVEWESNGQPENNYKTTPPVLDSDGSFFLYSKLTVDKSRWQQGNVFSCSVMHEALHNHYTQKSLSLSPGKSRASTKGPSVFPLAPSSKSTSGGTAALGCLVKDYFPEPVTVSWNSGALTSGVHTFPAVLQSSGLYSLSSVVTVPSSSLGTQTYICNVNHKPSNTKVDKKVNSLFNQEVQIPLTESYSPNSQVQLKESGPGSVAPSQSLSITCTVSGFSLTGYGVNWVRQPPGKGLEWLGMIWGDGSTDYNSALKSRLSITKDNSKSQVFLKMNSLQTDDTARYYCARDGYSNFHYYVMDYWGQGTSVTVSSGGGGSGGGGSGGGGSGGGGSDIVLTQSPASLAVSLGQRATISCRASESVEYYVTSLMQWYQQKPGQPPKLLISAASNVESGVPARFSGSGSGTDFSLNIHPVEEDDIAMYFCQQSRKVPWTFGGGTKLEIK
notes: also called X0130 + X0168
With B5, the binding result with CD28 on CD4+ T cells is “binds”.
